According to PMC4954977:

Experiments:
[1] = target: murine neonatal Fc receptor (FcRn), extracellular domain (murine | not stated) (UniProt Q61559); assay: SPR; FcRn extracellular domain immobilised on a CM5 chip (600 RU); Fc fusions injected; McIlvaine's phosphate-citrate buffer pH 6.0 with 0.05% Tween 20, 25 °C, 50 μL/min; Biacore 3000; bivalent analyte model (KD1)
[2] = target: mouse PRYSPRY-domain of TRIM21 (tripartite-motif containing protein 21) (mouse); assay: SPR; TRIM21 PRYSPRY-domain immobilised on a CM5 chip (200 RU); Fc fusions injected; HBS-EP pH 7.4 (0.01 M HEPES, 0.15 M NaCl, 3 mM EDTA, 0.05% Tween 20), 25 °C, 50 μL/min; Biacore 3000; bivalent analyte model (KD1)

Chain of UniProt Q61559 (Q61559 whole entry, looked up, the tested form may be a part): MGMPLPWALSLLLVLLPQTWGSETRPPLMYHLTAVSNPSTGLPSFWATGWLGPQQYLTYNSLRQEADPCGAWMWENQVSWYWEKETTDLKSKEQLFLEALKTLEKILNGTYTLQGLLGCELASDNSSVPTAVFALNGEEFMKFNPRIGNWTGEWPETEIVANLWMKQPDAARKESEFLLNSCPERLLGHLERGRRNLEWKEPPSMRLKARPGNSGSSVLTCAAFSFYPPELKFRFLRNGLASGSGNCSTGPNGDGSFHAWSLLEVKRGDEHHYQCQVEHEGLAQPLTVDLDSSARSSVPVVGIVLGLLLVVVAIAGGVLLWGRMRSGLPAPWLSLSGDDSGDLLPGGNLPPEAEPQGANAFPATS

Fc-ARP1 fusion protein (mouse IgG1 Fc fused to the anti-rotavirus VHH ARP1) (Fc fusion)
Kd [1]: 760 nM
Kd [2]: 28 nM
